The series has as its system Saccharomyces cerevisiae. As to the kind of experiment: transcriptional activation domain activity (GFP:mCherry ratio, weighted mean of sorted bins, harmonized to initial dataset scale) (arbitrary fluorescence ratio units); higher = stronger transcriptional activation. The conditions noted are these: beta-estradiol 1 µM; induction time 4 h. Summed up:
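Protein tiles carrying barcodes and fused to an estradiol-inducible synthetic transcription factor were placed at the URA3 locus of yeast diploids with a GFP reporter. Following 4 hours at 30 °C in SC with 1 uM beta-estradiol, cells were sorted into 8 GFP:mCherry bins, barcodes were sequenced, and tiles with fewer than 50 reads were discarded. Activation activity is given as the read-weighted mean of bin median fluorescence, averaged across barcodes and linearly mapped to the initial dataset scale.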

This is an account of results in the supplement of paper PMC12636428.

Turning to “MGYYVVLLTELLISCLCSPSLLYSPFLLICDSFPCSRRVFKLAFILFYILIVT”, the “transcriptional activation domain activity” value was determined as 43400.
As for “SFTLYTIGICGLCDQFGLFCWVHMSLLIIVLSSHFIVNNILEGLIWFWVPASL”, the “transcriptional activation domain activity” value was 31400.
The value for “SSKISCIHHVALKPSSGRYKRVTIIFNIIKAKRHLVTNSLRLMGLLLAIALYI” was 53000.
The value for “IYAYRESWGIDGAVFCKSWMLYWLLMDIHWQVMETLIACYIPMQFSPFFVFPW” was 61700; that for “MCRTLISFSLFVGVFILTSIRFFCLSLFFLSSFIFYFTLLLFFLLFLSGLFDL” was 50300.
As for “MPNEESKPVDQAAQEAEASKAVEELKLDEGSASKGKSSKKDKIKNAISSISSS”, the figure is 26800.
As for “KKGTIMTIASPSTVRRNMYDWLPSLFYFMPNSILGMWFDMTLPKLFFFLFLSQ”, the “transcriptional activation domain activity” value worked out at 63400.
As for “KEEEQKGEKEEDESEKETEKEEKKEEKKEKRKLMRRKPKAEELESEASEDERE”, the figure is 21700; as for “KISVCWLWGLDSLHLAFCIYMMYWYLITNFCVVAELGCFNIQTFFASKAFVIL”, 49800; as for “GEKEASGENTSNGTTATTVKPSSSSDEEKAAKKENKEAATTTNNGIKNSATAS”, 30300.
For the sequence “SRWFLVLFLLPYPRASPFFLVLYLFSLILHSRPCLYCIVLLTVLFTSSCYWAP”, the “transcriptional activation domain activity” value was found to be 53600.
In the case of “MGGVVWCFYRVFLFPFLLSPIIPSLLLSSLHTFPLSLTFTFTFILCRMFYVCT”, the “transcriptional activation domain activity” value worked out at 53500.
The value for “KKGRRGRRRNRRGRKEGESEKGRKGGKGKGRKGEEQRRVRIKKGSRGTGEGEK” was less than 6570; that for “TLTDKCFGAFEDENAIHFHNFHVVSPKYMVILVNCLYMWDLMKTVGLRKPWSG” was 68200.
On to “MEWVRLLSKEVLLFYSIFFFSFVSFTVLTLFPLHESSILSRLLIFIYPLRHLV”, for which the “transcriptional activation domain activity” value was found to be 44700.
The value for “MNFFFCMRSWTLLCYPKTGLLFFILCFFSSALSILSPPPCIFFFFFFLSRVCC” was 45100; that for “MLVRCPHLILNHKMPVLYLLFYLHIFHSLLLPFCIYASFFSFILFYQIGIFLL” was 48400.
The value for “VPTVFMAIIQEFASFLYLYQMMCMWVWYYFQYYQMGLVQTIIILMAAFIRVFL” was 65400; that for “YILYMLRMSVRELTRSELLIVRLGRPTKLIIAGNWEINLLGIFVGLGIVCTEV” was 59400.
Take “TKTVKDTTPATNHMDDDIAMFDSLATTQPIDIAASNQQNGEIAQLWDFNVDQF”: the “transcriptional activation domain activity” value stood at 77600.
As for “MFLKSELHFNEPLQHILISFIFLSCLSNLALMIFSVVYKVYILLALIMLVYAN”, the figure is 51900; as for “MILKHIHSCHALASFVVSLHSFPLLFSCPSRGLCGIVALETVFLFFFFPLFQL”, 75600.
As for “PAEGEAAAAPAAEESAAPAARTGSSSSSSSNEEKKKKAAKSKSRSVSRGKRTS”, the figure is 23200.
The value for “KKERKKEEKEEKGEKVKGKGERYVSDQVEEERERRRKRRNAKRQEREEEREKR” was 42900; that for “DGEATATPAKPKTPRKRKVKAADSAEEGTGDAEGSPKKKAGGRKKKADVAVKE” was 38600.
In the case of “GDKEKRKTSRRSRSPSRGRHQRRGGGGGEESRPRSESPRRRRRRLDSSARRDD”, the “transcriptional activation domain activity” value was 44400.
The value for “SLTHGMPQDLRRAVRNGVRLASAEDQERYFTFILHEAVRLYGVLMMRIVYRLF” was 55300; that for “RSKHWEMLSVLHAGMVLLTAWFFFHCIDLIIHLERARVAYGYIVVPALFDILR” was 46500.
As for “LPTGSLLPGVGPLRSLIFDLELTRHIVDAYDLYDILFHPRTLPLLCHLTYLHI”, the figure is 41800; as for “GIHETLSFYFVFVCFLYGLRSMALMIGLTGALFLLFMDMLVFGMATAVLIDYG”, 50700.
As for “VPRKLTASIHHPVEGLFYGTYWVSISLILNCAHAYGVPSSGPWLVRALEVCFW”, the figure is 64800; as for “WLAHSKKKTCDVCKHPYSFTKVYATDMPSRLPPVLLLRRVAQQSFFAMLFAVR”, 37900.
Consider “FLDLVLPHVGRWSDFVAYIPGVTVVEVNYLLRRLGSPKCGPALLLEKLHLFFF”, for which the “transcriptional activation domain activity” value was 54400.
As for “EDEAPEPEAEEKKPSAKGRRASKVKQENDEEPEPEPVKQVAKAKRGSKKAVKE”, the figure is 40200; as for “MLMAWVIHAKCSAVPQCPPRPAVRSYIGRITLSLIIRARCILEMIVFPTFICW”, 55600; as for “HGTLCDIYLVIILKCCGDDDNSVSLVEGIALAPSSARSNAFERVGKFGGGPES”, 46900.
As for “MYYCLFFFFVSFCISLCFFYYYSQLCFFSTSFFAVSRGFFFISLSFLVCVWTI”, the figure is 57300; as for “KDSDDESEDSDAKSKKRKKRKRVVESDEGSGSEAESKKRKKKRKAEDSDVSGS”, 22600.
As for “MADQPQGRKPNNRRPRHRGRGGGAGGGGNGGGNGGGEDGGNEGGRGGRRGGRG”, the figure is 33900.
Consider “ILFCSWLSFRQLFFLFICNTHHWVFEDYFCHFSFFLSLFLMAITWKCFFFFFF”, for which the “transcriptional activation domain activity” value is 38900.
Regarding “YLTRHVRLFGKLFRRMQQLHATRFVTLPLSSDLILYYWSKVVQASTALPEFIA”, the “transcriptional activation domain activity” value was 51600.
Regarding “KSNGTEGAGAEGSKGGEGSTGEGSKGEGSSGEGAKGGEGSKGEGAGAEGSKGG”, the “transcriptional activation domain activity” value came to 36300.
Take “EETKEDESSSSPADKENEKPKANTSAKQAKPRGEKKEGAASKGKGGRKQANGT”: the “transcriptional activation domain activity” value was determined as 33200.
The value for “LIHLMNIAQVVILFVHRFIFGVIPLFEIKTCSFWPLLVSLWHLNYIIIYSIMF” was 51600; that for “RKEGGGHGSSSRRDRDRDRDRSDRHRSSKKSSSSNNHDADGTAAAAADASGVH” was 18200; that for “ETPAAEPVKETETAAEAAPAEAAAEATPEEAKEEKKEEKKEEKVKGSKVGRRL” was 32500.
As for “LSPHLPPHLPPRLYFAIDSDLFLLLLLPPFDICFYLSSLLVLIFFIYLLLEVH”, the figure is 30600; as for “MKVDSYTDYLTGIFIHCGLYDTNHDPNYPALYYRCVLLDSTWLVGLLTCFLWL”, 65100; as for “KDEVMKIMPVQKQTRAGQRTRFKAFVVIGDSDGHVGLGVKCAKEVATAIRGAI”, 61200.
As for “SSPKKKGASKSDSAGRGNTAAAAKGRGKAKANAKGSPKKGGGGSARKRRKTAE”, the figure is 41100; as for “MGSCNLPFGHISLARGTLVLIRGWSFFLASQPPYGFIRWILFRSSFYFLCSWR”, 55900.
Take “MEFGSWGWKSIFFIFFSFRDFMVWHGGVSFFLPYINDFYIFVLIFYCFIYSAS”: the “transcriptional activation domain activity” value turned out to be 59800.
As for “MFCLRSWIPVLFFLLRTHASPVYLVLFISATYFLNRPCVYCSLLLFILVVALF”, the figure is 84400; as for “AKRGQNEALAGAKPERGGAGAKQDARAARGRAQGSGVRGAGRGAAGRGQAQQV”, 41100.
The value for “TLRVDSLTGMIRIIRHVDFDGLPRPSGSGVITPFGIVFGGVCRGYWLWLWKVD” was 35800; that for “KQTRAGQRTRFRAVVIVGDSNGHVGLGVKTSKEVATAIRAAIVIAKLNVIPVR” was 64200; that for “FYGYFNVLKIYLIKYRSSEVFFFFFDFLMYTENEWFITNLFFLLSFILHLGFF” was 60200.
The value for “DAPPQKGDRKAEVQDGENGDEVGQDPKGKDKGGRGRGRGGRGRGGAARGGATA” was 36600.
In the case of “HSDLLNDMDSASQRASHNASGFPNFLDTSCSSSFDDHFIFTNNLPFLNNNSIN”, the “transcriptional activation domain activity” value is 60800.
As for “STTSDGAPGSEVPLKRRPGRPKGSKTKKRKIDTAPVPIAAAGTQPAASSTTAP”, the figure is 35700; as for “FFLKVYLLNPLHMTRFADLLYQGAILNRVFQPYESHLQYLLQWMCDYNLYGCA”, 72900.
On to “ILIIVFFYVHFLGVLIFLVGGYYHTKVAHGSYWIWPSFVFWAFDRFVRVVRLV”, for which the “transcriptional activation domain activity” value was found to be 48500.
As for “VGLYSLCIVSGILFPLYICCWREDFLIQNFVHRSLFTLVFMLLFLLGLIFLEF”, the figure is 56900; as for “MRGCLVAGITLLTRFVVASCGRRNVGRMRHRPRGQPLPSSLMLLVVICREFRK”, 66500; as for “YDIVCQWWRNLVDRLKELPPLVRISLILELCQFVIPKMHIHSHTLLCQLLFSL”, 59100.
Take “MIPPIHSPSFLQSYICFMLILPLPLMSIIVFHPLYFFWLFLSFLLLDYYLLLL”: the “transcriptional activation domain activity” value worked out at 23300.
The value for “DLQTYVLCLLLLYIARDFVDCLWNLFSTIAILCLVTWVTPMFLIAVFPIGLVY” was 53700; that for “GEVTQKTRKGSTKHAQRATSGKASEKRRELSRKRKGRRKENARADDGTGEEEE” was 17400.
As for “MSADYAIGQFRYLAKLLLVHGHWNTYRIGVLHQVFFYKNLIWTGCLLIFQIFT”, the figure is 45800; as for “AAKSKGRTSRASRTRGEKSDSKEEKKRTSSLKEKRSSSEEKKSRSSKSAGKEK”, 38300.
As for “ASIPEPTANLFLDSINTFGSIDIFDSDLDLNNTLQWADLFDLNFDNIMMTPQF”, the figure is 123000; as for “GGVNWESTRDREAVVIRILSPIVEADGSVYICIWIHPVGIIIVHLIVELKLVH”, 42300.
“LVLKMILDRLAEPGDSLLNIDFSTLIHQFAKYLNKVPSNYVVLRIKIKICHLV”: the “transcriptional activation domain activity” value was determined as 61000.
The value for “MITRRTGGNSGNWVPSIRVQEGVLTKGFRPINMRSELVRLHEVVILVVGMEMD” was 47100.
